Laboratory results from the supplement of paper PMC9170038.

The sequences below were run on K4 kissing-loop RNA reporter (assay: apparent KD of K4 kissing-loop reporter; higher = weaker reporter binding). Details: Eterna round: R107; input ligand: arginine 13.2 mM.
Description: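 RNA-MaP round R107: designed RNA switches with theophylline, tryptophan, arginine or FMN aptamers are transcribed on-chip within common flanks. They are titrated with a labelled K4 kissing-loop RNA reporter in RNA-MaP buffer (100 mM Tris pH 7.5, 80 mM KCl, 4 mM MgCl2), without ligand or with the indicated ligand. Median apparent KD per design.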
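Note: bound reporter read as fluorescence of individual clusters on recovered sequencing chips by microscopy, with normalized cluster intensities fitted with a binding model.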

| Sequence | apparent KD of K4 kissing-loop reporter |
| --- | --- |
| GGCAUGCGUAGAGUGAUGUUCUAAGAUGAUACCAGUGCGGAAACGCACCCUUGGCAGCAUCUGACUGGCAUGCCGGCGAAAGCCU | 811 nM |
| GGAGAGGUCUUGUUUGGAUGUGUUUAAUGGCGAGGACCGGUACGGCCGCCACUCGGGUGAUGUUAGUGAUGUUGAUGUUGUGAUG ['oo'mullin] | 131 nM |
| ACGGAGUGAUGUUCCGGCCUCCCAGCAGAUACCAGCAGUCGCGAUUGCCCUUGGCAGCUGUCCGCGGCAUCCACUUGUAGCGGUA [theeternabot_exclusion_KL_Theo_A_12] | 173 nM |
| CCUAUCUCAUACGAUACCAGUGAAUUAAUAUUUAUAAGCAGUGAUGUUGCAUUCCAAGUACACCCUUGGCAGCGUAUGGGAUAGG [Ex Theophylline B K4 20] | 151 nM |
| UAUAUACAUUUAUUAAUUAAAGGUUCAGAAGGAGCGUGAAUUAACACAGGUAGGUCGCUGAGCGAGUGAUGUUCGCUAUAUGGUA [JR_ExcArginiA_Sub005] | 72.6 nM |
| UGACUGGACUGAAGGAGCGCUAAACUCCUAGUGAUGUUAGGAAAACGAGACAAAGUCUCGAGGCAGGUAGGUCGCAGUCUAGUCU [ArgBS 18 #SwitchBubble #StaticStem] | 120 nM |
| UCCAAUAUUUAUUGAUCCGCCUCGCAUCAACGAGGACCGGUACGGCCGCCACUCGUGCCUAGGUAGUGAUGUUACUUAGUUUACU [theeternabot_sameState_KL_Trp_A_32] | 162 nM |
| GCGUUAGUACUCGAUACCAGACCUCUAGUAGUGAUGUUGCUUGGCGAAGGCCUCGAACGAGUCCCUUGGCAGCGAGGAAAGAGGA [theeternabot_sameState_KL_Theo_B_4] | 387 nM |
| CAUAUACAAGUGAUGUUUGUACUAACCGAAGGAGCGUCGUUGAAGACAGGUAGGUCGCGGUUUAAGUUAGAUUAUAUAAUUCCAC [JR_Nu_SSArginiA_Sub027] | 535 nM |
| AGCUGUGGCAGAAGGAGCGACAGUUAUUCUGAUAGUACUCUGAGUGAUGUUCAGAACGACUGUCAGGUAGGUCGCUGUCACAGCU [#01 K4 Arginine B Exclusion] | 159 nM |
| CACCAUGAAUUCUCUAGGAGUGAUGUUUUUCGAGGACCGGUACGGCCGCCACUCGGACCAGGAACGUGGGAGCGGCGAAAAGACU [ttmullin] | 438 nM |
| GUUUCAGUGAUGUUGGAAGGCGAGCGGGAUACCAGCCAAGACUCAGGCCCUUGGCAGCCCACAUAUCCCACGUAGAUAGUAGCUC [Same State - Theophylline A (Freestyle 14)] | 116 nM |
| GUGUAGAAGUGAGGAUAUCGAUUUAAGAAUAAGCAGUGAUGUUGCAAGCAGGAGGAAUAAGAUUAACGAGAAGGCGUGGAUAUAG [FMN B Exclusion; Euphoria Solution] | 110 nM |
| AACCGCCAGUCGGCCGCCACUCACAGCAGUGAUGUUGCUGAAAAUCUAAAAGAGUGAUGUUCUUAGAGGACCGGGACUCCAGGCG [Same State Tryptophan B GF 5] | 76.9 nM |
| AGCUCAGAGUGACUCGAUAAGAGUCACAAACGAGGACCGGUACGGCCGCCACUCGAAAUAAUGGGAGUGAUGUUCUCACUGAGCA [#SwitchBubble 3 #StaticStem #K4Late] | 719 nM |
| CGCUCGAAAAUUAAGUGAGUGAUGUUCACUCGAGGACCGGUACGGCCGCCACUCGUCUUACGUUGAGACACUGCUCGUACUCAUA [theeternabot_exclusion_KL_Trp_A_38] | 674 nM |

| Sequence | apparent KD of K4 kissing-loop reporter |
| --- | --- |
| GAAGGUCAAAGACCUUCGUGCACACCUGAUACCAGUCGCGAAAGCGACCCUUGGCAGCAGGGCAGUGAUGUUGCCAGUGCACAAA [Omei KL Theo A SS A v5] | 176 nM |
| ACAUCGGUUGAGAGUGAUGUUCCUUGUGUUCGAGGACCGGUACGGCCGCCACUCGGGUAGAAAAUAACAGAUGUGUUUCCUUUUU [BDazzled - #18 SS Tryptophan A] | 80.5 nM |
| AUAUAGAGUGAUGUUCAUGAGUAUUUCGAAGGAGCGCUAAAUAAGGCAGGUAGGUCGCGGAAAAUAUAUAUAUAGAUAUAUAUAU [KL-SSArg-A29] | 351 nM |
| GCAGGACGAGGAGGAGGAUGAAUUACUGAAGGAGCGCAUAUUUUUGCAGGUAGGUCGCGGUAAAGAAGUAUAGUGAUGUUAUAUA [SSArgA.L] | 476 nM |
| UUCGAUCAGUGAUGUUGAUCAAUAGUCGAAGGAGCGCUAUAGAUAGCAGGUAGGUCGCGGCUACAGGGUGUUAAGACACCCAGAA [#13 K4 Arginine A Same State] | 450 nM |
| CCAUUCUGUUACGAUACCAGUCAAAUAUAUUUGAUCAAUACCCUCGCCGAGUGAUGUUCGGACCCUUGGCAGCGUCUGGGACAGG [ccdfmullin] | 561 nM |
| CCCUCACGAGUGAUGUUCGUAGGGUACAGUCAGGAUAUCAUGCGGUUGAGAAGGGACAGAAAGGGCGGCCACGGGUUGCUCAUUU [Issogeso] | 352 nM |
| UCGGCAGUGAACGAUACCAGCGUCACGUGGCUGGUGGUCACAUGAGUGAUGUUCAUGUAACGCCCUUGGCAGCGUGCGCGUACCG [KL-XTheo-B11] | 98.1 nM |
| UGAUACCAGACGGCCGCCACUCCCGUAAGUCAAAGACUUACGAAGAGAGUUAUCCAGUGAUGUUGGAGGACCGGGUCUGGUAUCU [FiskerMod 14 - Jieux - Exclusion - Tryptophan B] | 199 nM |
| CCGAGCCUGACGUAAGUCAGGCUCUGCGAGCGAGGACCGGUACGGCCGCCACUCGGUGCAGUGAUGUUGCAUGGCCGCAAGGCCG [#2 Exclusion - Tryptophan A Attempt #23 (HarryS)] | 274 nM |
| UAGUCCUAGUGAUGGUCAUCACGUGGCGGGCGAGGACCGGUACGGCCGCCACUCGACUUUGCAGUGAUGUUGCAAACCGGACAAU [Exclusion - Tryptophan A (Freestyle 20)] | 134 nM |
| CGCCGCAAGGCGAGCGCUCCCACUCCGGAAGGAGCGCCCGUAAGGGCAGGUAGGUCGCCGGAGUGAUGUUCCGGUGGAGGGCUCG [#2 Exclusion - Arginine A Attempt #14 (Inspired by Omei)] | 224 nM |
| UGAUACCAGACGGCCGCCACUGCACCAGUCAAUGACUGAGCGCGGUGGCGCUCAGUGAUGUUGAGCAGGACCGGGUCUGGUAUCU [Mod of Eli's TrypBX 8 v4] | 117 nM |
| CGCGCGCGCUUGAGAGGGCGCGCGCGAAGUGAGGAUAUUUAGGGAGAAAGAAGGCACUAUAAAAUAUAGUGAUGUUAUAUAAGGG [SSFMNA.E] | 240 nM |
| UUGUUUGGUUGAGAGGUUGGGCGAGAUGAUACCAGUAUAGUAUUGUACCCUUGGCAGCAUAGGAGAGAUAUAGUGAUGUUGUAUG [SSTheophA.W] | 320 nM |
| AAGCAGUCACUCAAAGCCAUCGAAGAUGGACGAGGACCGGUACGGCCGCCACUCGGAGUGAUGUUCCGAAGACUGCAAAAUAAAA | 295 nM |

Same assay, conditions: Eterna round: R107; input ligand: none

| Sequence | apparent KD of K4 kissing-loop reporter |
| --- | --- |
| CGCGCGCGUUUGAGAGGGCGCGCGCGAAGUGAGGAUAUUUAGGGAGAAAGAAGGCACUAUAAAAUAUAGUGAUGUUAUAUAAGGG [SSFMNA.F] | 288 nM |
| AAAAUAAUCCAGUGAUGUUGGUAUGCAGAUACCAGCGACGAAAGUCGCCCUUGGCAGCUGUGGACGUACAAAAUAAGUACGUCCU | 933 nM |
| UUGCAAGAGUCGGCCGCCACUCCGGGCCCUAUAAAUGGGCGCAGUGAUGUUGCGGCUAGGCCUCUGAGGACCGGGACUUUGUAGC [Ateusraor] | 78.5 nM |
| AGAGAUAUAUGAGGAUAUGGGUUAGUUAAUGAGUUAGUUUUAGUGUUGUUUGGUUAGUGAUGUUAUUUAGAAGGCGUGAGUGAUG [cqqbmullin] | 70 nM |
| CAAACUCUGACGGCCGCCACUAAUCGUGUAACAGUGAUGUUGUUACAUCAAAGAUGGGUUGCGUGUAGGACCGGGUCGACGCAAA [theeternabot_exclusion_KL_Trp_B_48] | 120 nM |
| UGCUUAAUGGAAGGAUAUUAGGGUUCGACCGCGUAUCAUUGUUAGUCUGGCCAGUGAUGUUGGCCUUAAGAAGGUCCGCUACGGU [theeternabot_exclusion_KL_FMN_B_27] | 171 nM |
| GUUACGCAUGGAAGGAGCGCUCUCCGGUUGAUUGACACAGUGAUGUUGUGAUUCUACCGUAAGCAGGUAGGUCGCCAUGUGUAAC [Ex Arginine B K4 13] | 1210 nM |
| UUCGAAAGUCGAAGGAGCGCUGGCGGUCAUAGACUAUAUCUGUAGUGAUGUUACAGAUUCCAGCAGGUAGGUCGCGACAGAGACA [Arg B SS t18b] | 107 nM |
| AGUGGUGUAUCUUUUAAGAGUGAUGUUUUUCGAGGACCGGUACGGCCGCCACUCGAGUGAUGAGUGCGUCGUUGUGGUGAUUAGU [#14 K4 Tryptophan A Exclusion] | 826 nM |
| UGUCAUUGGUCUGAUACCAGUUGAUGACGAAUACGUCAACUGGAGUGAUGUUCCUAAAACAACCCUUGGCAGCAGACCGAUGACU [TheoBS 1 #SwitchBubble #StaticStem] | 658 nM |
| GGCAUGCGUAGAGUGAUGUUCUAAGAUGAUACCAGUGCGGAAACGCACCCUUGGCAGCAUCUGACUGGCAUGCCGGCGAAAGCCU | 1240 nM |
| GGAGAGGUCUUGUUUGGAUGUGUUUAAUGGCGAGGACCGGUACGGCCGCCACUCGGGUGAUGUUAGUGAUGUUGAUGUUGUGAUG ['oo'mullin] | 125 nM |
| ACGGAGUGAUGUUCCGGCCUCCCAGCAGAUACCAGCAGUCGCGAUUGCCCUUGGCAGCUGUCCGCGGCAUCCACUUGUAGCGGUA [theeternabot_exclusion_KL_Theo_A_12] | 204 nM |
| CCUAUCUCAUACGAUACCAGUGAAUUAAUAUUUAUAAGCAGUGAUGUUGCAUUCCAAGUACACCCUUGGCAGCGUAUGGGAUAGG [Ex Theophylline B K4 20] | 151 nM |
| UAUAUACAUUUAUUAAUUAAAGGUUCAGAAGGAGCGUGAAUUAACACAGGUAGGUCGCUGAGCGAGUGAUGUUCGCUAUAUGGUA [JR_ExcArginiA_Sub005] | 70.5 nM |
| UGACUGGACUGAAGGAGCGCUAAACUCCUAGUGAUGUUAGGAAAACGAGACAAAGUCUCGAGGCAGGUAGGUCGCAGUCUAGUCU [ArgBS 18 #SwitchBubble #StaticStem] | 136 nM |
| UCCAAUAUUUAUUGAUCCGCCUCGCAUCAACGAGGACCGGUACGGCCGCCACUCGUGCCUAGGUAGUGAUGUUACUUAGUUUACU [theeternabot_sameState_KL_Trp_A_32] | 114 nM |
| GCGUUAGUACUCGAUACCAGACCUCUAGUAGUGAUGUUGCUUGGCGAAGGCCUCGAACGAGUCCCUUGGCAGCGAGGAAAGAGGA [theeternabot_sameState_KL_Theo_B_4] | 584 nM |
| CAUAUACAAGUGAUGUUUGUACUAACCGAAGGAGCGUCGUUGAAGACAGGUAGGUCGCGGUUUAAGUUAGAUUAUAUAAUUCCAC [JR_Nu_SSArginiA_Sub027] | 892 nM |
| AGCUGUGGCAGAAGGAGCGACAGUUAUUCUGAUAGUACUCUGAGUGAUGUUCAGAACGACUGUCAGGUAGGUCGCUGUCACAGCU [#01 K4 Arginine B Exclusion] | 175 nM |
| CACCAUGAAUUCUCUAGGAGUGAUGUUUUUCGAGGACCGGUACGGCCGCCACUCGGACCAGGAACGUGGGAGCGGCGAAAAGACU [ttmullin] | 688 nM |
